Laboratory results taken from US20240252670A1, “ANTIBODY DRUG CONJUGATE, PREPARATION METHOD THEREFOR AND APPLICATION THEREOF” (TSINGHUA UNIVERSITY, priority 2021, published 2024).

Target: PD-L1 on the surface of murine cells (MC38, B16, wild-type DC 2.4) (murine) (UniProt Q9EP73)
Assay: FACS on MC38 cells, FITC-labeled goat anti-human secondary antibody

PD-L1 on the surface of murine cells (MC38, B16, wild-type DC 2.4) (murine), sequence (Q9EP73 19-290): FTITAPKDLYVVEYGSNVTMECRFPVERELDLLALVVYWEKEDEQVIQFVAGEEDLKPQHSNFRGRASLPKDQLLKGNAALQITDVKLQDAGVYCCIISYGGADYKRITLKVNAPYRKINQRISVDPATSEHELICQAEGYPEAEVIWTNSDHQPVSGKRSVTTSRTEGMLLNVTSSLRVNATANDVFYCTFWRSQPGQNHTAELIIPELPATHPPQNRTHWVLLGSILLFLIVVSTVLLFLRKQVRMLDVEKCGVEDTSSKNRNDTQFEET

- MFI: 167
- shift rate of the FITC positive signal relative to the NC group: 1.7%
Substance: isotype control IgG (antibody)
